{"source": "paper PMC4254523", "molecules": {"B1": {"name": "hu3F8 (IgG1) (antibody, V domains shown)", "VH": "QVQLVESGPGVVQPGRSLRISCAVSGFSVTNYGVHWVRQPPGKGLEWLGVIWAGGITNYNSAFMSRLTISKDNSKNTVYLQMNSLRAEDTAMYYCASRGGHYGYALDYWGQGTLVTVSS", "VL": "EIVMTQTPATLSVSAGERVTITCKASQSVSNDVTWYQQKPGQAPRLLIYSASNRYSGVPARFSGSGYGTEFTFTISSVQSEDFAVYFCQQDYSSFGQGTKLEIK"}, "B2": {"name": "mouse 3F8 (IgG3) (antibody, V domains shown)", "VH": "QVQLKESGPGLVAPSQSLSITCTVSGFSVTNYGVHWVRQPPGKGLEWLGVIWAGGITNYNSAFMSRLSISKDNSKSQVFLKMNSLQIDDTAMYYCASRGGHYGYALDYWGQGTSVTVSS", "VL": "SIVMTQTPKFLLVSAGDRVTITCKASQSVSNDVTWYQQKAGQSPKLLIYSASNRYSGVPDRFTGSGYGTAFTFTISTVQAEDLAVYFCQQDYSSFGGGTKLEIK"}}, "assay_in_all_cases": "SPR", "key": {"[1]": {"biological_target": "human FcγRII (CD32), CD32A-131H (human) (UniProt P12318)", "sequence (P12318 34-317)": "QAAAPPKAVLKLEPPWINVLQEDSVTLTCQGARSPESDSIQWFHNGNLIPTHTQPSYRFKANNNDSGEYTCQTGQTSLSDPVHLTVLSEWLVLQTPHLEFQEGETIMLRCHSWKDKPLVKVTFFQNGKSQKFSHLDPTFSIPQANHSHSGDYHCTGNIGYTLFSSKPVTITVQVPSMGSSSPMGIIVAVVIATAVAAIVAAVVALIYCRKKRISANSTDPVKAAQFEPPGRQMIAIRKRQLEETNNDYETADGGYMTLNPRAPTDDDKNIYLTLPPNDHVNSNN"}, "[2]": {"biological_target": "human FcγRII (CD32), CD32B (human) (UniProt P31994)", "sequence (P31994 43-310)": "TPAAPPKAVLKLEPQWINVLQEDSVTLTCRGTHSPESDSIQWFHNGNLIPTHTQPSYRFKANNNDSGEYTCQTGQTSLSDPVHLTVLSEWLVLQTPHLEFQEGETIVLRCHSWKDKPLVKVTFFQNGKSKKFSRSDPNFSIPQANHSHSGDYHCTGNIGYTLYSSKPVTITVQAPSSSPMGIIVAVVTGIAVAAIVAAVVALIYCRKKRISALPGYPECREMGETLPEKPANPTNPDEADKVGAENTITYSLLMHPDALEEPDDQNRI"}, "[3]": {"biological_target": "human FcγRII (CD32), CD32A-131R (human)"}}, "data": [{"molecule": "hu3F8 (IgG1) (antibody)", "values": [{"measurement": "Ka", "setting": "[1]", "result": 631000, "unit": "M⁻¹"}, {"measurement": "koff", "setting": "[1]", "result": 0.427, "unit": "s⁻¹"}, {"measurement": "Ka", "setting": "[2]", "result": 83700, "unit": "M⁻¹"}, {"measurement": "koff", "setting": "[2]", "result": 0.341, "unit": "s⁻¹"}, {"measurement": "kon", "setting": "[2]", "result": 28600, "unit": "M⁻¹ s⁻¹"}]}, {"molecule": "mouse 3F8 (IgG3) (antibody)", "values": [{"measurement": "Ka", "setting": "[1]", "result": 17300, "unit": "M⁻¹"}, {"measurement": "koff", "setting": "[1]", "result": 1.1, "unit": "s⁻¹"}, {"measurement": "Ka", "setting": "[2]", "result": 5660, "unit": "M⁻¹"}, {"measurement": "koff", "setting": "[2]", "result": 2.03, "unit": "s⁻¹"}, {"measurement": "kon", "setting": "[2]", "result": 11500, "unit": "M⁻¹ s⁻¹"}]}, {"molecule": "B1", "values": [{"measurement": "Ka", "setting": "[3]", "result": 368000, "unit": "M⁻¹"}, {"measurement": "koff", "setting": "[3]", "result": 0.406, "unit": "s⁻¹"}, {"measurement": "kon", "setting": "[3]", "result": 149000, "unit": "M⁻¹ s⁻¹"}]}, {"molecule": "B2", "values": [{"measurement": "Ka", "setting": "[3]", "result": 71500, "unit": "M⁻¹"}, {"measurement": "koff", "setting": "[3]", "result": 0.363, "unit": "s⁻¹"}, {"measurement": "kon", "setting": "[3]", "result": 25900, "unit": "M⁻¹ s⁻¹"}]}]}
